Ends that are not written are not given here.
T1: proteolytic ADAM33 polypeptide (wild-type ADAM33 catalytic domain with Ser-Gly-His6 Tag, expressed in … (Homo sapiens (Human), UniProt Q9BZ11 204-409))
T1 sequence: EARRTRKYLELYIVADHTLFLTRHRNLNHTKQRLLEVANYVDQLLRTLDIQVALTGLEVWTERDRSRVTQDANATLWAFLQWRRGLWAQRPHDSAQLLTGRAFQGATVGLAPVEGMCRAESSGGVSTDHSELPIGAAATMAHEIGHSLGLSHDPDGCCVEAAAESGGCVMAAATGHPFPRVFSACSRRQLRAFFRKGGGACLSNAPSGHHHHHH

T2: 10-mer truncated form of APP28, YEVHH-QKLVF (SEQ ID NO: 8)
T2 chain: YEVHHQKLVF

T3: Ac-Tyr-Glu-Val-Ala-His-Gln-Lys-Leu-Val-Phe-NH2 (SEQ ID NO: 13)
T3 chain: YEVAHQKLVF

B1: proteolytic ADAM33 polypeptide (wild-type ADAM33 catalytic domain with Ser-Gly-His6 Tag, expressed in Drosophila S2 cells) (protein)
chain: T1 sequence

Tests used:
[1] = biological target: T1, proteolytic ADAM33 polypeptide …; test: cell-based or functional assay
[2] = biological target: T2, 10-mer truncated form of APP28, …
[3] = biological target: T3, Ac-Tyr-Glu-Val-Ala-His-Gln-Lys-Leu-Val-P …

Row | Binder | Relative Activity [1] | also measured
1 | Ac-VAHQKL-NH2 [Ac-VAH*QKL-NH2 (SEQ ID NO: 38)] | 0 | –
2 | SGYEVAHQKLAFFA-OH [SGYEVAH*QKLAFFA-OH (SEQ ID NO: 11)] | 1.2 | –
3 | EVAHQKLA-OH [EVAH*QKLA-OH (SEQ ID NO: 37)] | 0.1 | –
4 | B1 | – | cleavage [2]: identification of a 10-mer peptide substrate of a proteolytic ADAM33 polypeptide; kcat/Km [3]: kcat/Km=10,000 M-1s-1; rate of cleavage relative to the 10-mer truncated form of APP28 (SEQ ID NO: 8) [3]: at a rate seventeen times greater than the 10-mer truncated form of APP28 (SEQ ID NO: 8)
5 | Ac-YEVAHQKLVF-NH2 [Ac-Tyr-Glu-Val-Ala-His-Gln-Lys-Leu-Val-Phe-NH2 (SEQ ID NO: 13)] | 1 | –
6 | SGYEVAHQKLA-OH [SGYEVAH*QKLA-OH (SEQ ID NO: 9)] | 0.5 | –
7 | YEVAHQKLAF-OH [YEVAH*QKLAF-OH (SEQ ID NO: 7)] | 1.1 | –
8 | YEVAHQKLA-OH [YEVAH*QKLA-OH (SEQ ID NO: 12)] | 0.9 | –

From patent US20040152869A1 (SCHERING, published 2004)
